8 sequences from the DeepSol protein solubility set can be followed below.

The nature of the series: soluble on expression in E. coli; label from the status in PepcDB or PDB records.
Consider “MSLSMEFDAVIIGGGVSGCATFYTLSEYSSLKRVAIVEKCSKLAQISSSAKANSQTIHDGSIETNYTPEKAKKVRLSAYKTRQYALNKGLQNEVIFETQKMAIGVGDEECEFMKKRYESFKEIFVGLEEFDKQKIKELEPNVILGANGIDRHENIIGHGYRKDWSTMNFAKLSENFVEEALKLKPNNQVFLNFKVKKIEKRNDTYAVISEDAEEVYAKFVLVNAGSYALPLAQSMGYGLDLGCLPVAGSFYFVPDLLRGKVYTVQNPKLPFAAVHGDPDAVIKGKTRIGPTALTMPKLERNKCWLKGISLELLKMDLNKDVFKIAFDLMSDKEIRNYVFKNMVFELPIIGKRKFLKDAQKIIPSLSLEDLEYAHGFGEVRPQVLDRTKRKLELGEKKICEGHHHHHH”, for which the “soluble on expression in E. coli” value was “not soluble”. For the sequence “MGHHHHHHSHMEEKFEDRSPAAECLSEKETEELMAWMRNVLGSRVTNVKVTLRLDTHPAMVTVLEMGAARHFLRMQQLAKTQEERAQLLQPTLEINPRHALIKKLNQLRASEPGLAQLLVDQIYENAMIAAGLVDDPRAMVGRLNELLVKALERH”, the “soluble on expression in E. coli” value is on record as “soluble”. Consider “GGSGPLKPEEHEDILNKLLDPELAQSERTEALQQLRVNYGSFVSEYNDLEEKVAHAKEENLNMHQMLDQTLLELNNM”, for which the “soluble on expression in E. coli” value is “soluble”. Next, “MNKTMAKSLSVIIPACNEVDTISDVIQSVRPLNPVEIIVVANGCNDGTEDVADRLGCKVIKHTELLGNDVGRAVGAKHAIGDVLLFIDGDFAIPTSKLKLFLNPILYDQADVVLNNLDALFLKRQKTTSITVWRQILNAMLEREELKMNSLLDVPHALTKEVVQSIGYECFVNPIVAHLRLVQSKWRISRHCAIDVITPNKFRPFQHAAYGTNLSQSEKRMIGDHIEAVAERILSSDERGGYYDGNRKRDSVYHTLSFEEFYQGWGVTSDFYKGKQLSVVIPVQDEEKTIGNVIEELRKIEPFEIIVVVNGSSDKTKKIAKDKGATTIVYKEALGNDVGRSLGTYFAKGEIVLFIDGDFVIPASELYPFAKAIADGTDVALNDLNHYLDLRVPLHLVTAFKYALNLACDRKDLGVGSLIAVPNAFSRKCLKEIGYRSLLAPCVAQVKAILSGFEVACVSRVEVDKMNRIRPSEHFAKIGHPPAVLRIIGDHIEGLDQIIALTDNRGGFYDGNRKRDVLLEHHHHHH”: “not soluble”; “MGSDKIHHHHHHMKITFGQQTTKVKQLADKISFDISMGVYKSGDSLPSINQLSQAYEVSRDTVFKAFLDLKERGIIDSTPGKGYYVVGRLKNVLLLLDEYSPFKYALYNSFVKRLSIRYKVDLLFHQYNERLFNTIIRESLGRYNKYIVMNFDNEKLSPNLYKINPSKLLLLDFGKFEKEGFSYVCQDFDQGFYNALFQLADRLRKYQKLVFVLVDDSMHPRSSRDFFERFCADQHLGCEVVSDIEGLQVRRGEVYIAIRQIDVVSIIKKSRVEGLQCGVDFGLIGYNDTPAYEVIDQGITALSVDWEKMGDKAAEFVLQGKTIQDYLPTEVRLRASL”: “not soluble”; “MGSDKIHHHHHHMDIYRHAQVMMNAAQAAHDLVDHLSIQPRGVVKVSVPVDIAQNLLPKILPAFLKKYPEIRLQLIVSNRRVDVINEGIDIALRVRSKLDDDPSLVLRQFALIEQSLFASQAYLNEFGNIKSPDELSDHRILSLSEEHLDQQFILHGPDNQLKKVKVSPTIMGTNIYMLAQLASQNCGIALLPDTAAEDFVKSGQLVQILPDWKAAHGIFHAVYPSRRGLLPAVRVFIDYLVEHLSEHP”: “not soluble”. Next, “MYDTIVIGAGQAGISIGYYLKQSDQKFIILDKSHEVGESWKDRYDSLVLFTSRMYSSLPGMHLEGEKHGFPSKNEIVAYLKKYVKKFEIPIQLRTEVISVLKIKNYFLIKTNREEYQTKNLVIATGPFHTPNIPSISKDLSDNINQLHSSQYKNSKQLAYGNVLVVGGGNSGAQIAVELSKERVTYLACSNKLVYFPLMIGKRSIFWWFDKLGVLHASHTSIVGKFIQKKGDPVFGHELKHAIKQKEIILKKRVIAAKQNEIIFKDSSTLEVNNIIWATGFRNPLCWINIKGVLDQEGRIIHHRGVSPVEGLYFIGLPWQHKRGSALLQGVGNDAEYIVKQMNGELEHHHHHH”: “soluble”; “MRGSGPRDRGSNPRPATTPTALSYISLPTSDSTRWGGLAVARARGVVLGYRRGTNTQYPQHALVKLLLDDPRKAGLYVSGIAFYRDRYGNVYKGRVLRLHGRRGGVVVVKFNPPLPGQATGGVVEVVKAGGDGLEHHHHHH”: “not soluble”.
